According to patent publication US10925971B2, “Methods of treating PRLR positive breast cancer” (Regeneron Pharmaceuticals, Inc., priority 2016, dated 2021):

Tests used:
[1] = system: T47D cells; experiment: In vitro cell viability (cell kill) assay, CCK8; assay type: cell-based, human; conditions: T47D cells (PRLR 12× above background), 3 days; read-out: IC50, growth inhibition / cell viability
Summary of the method: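 T47D cells grown overnight, then exposed for 3 days to anti-PRLR-DM1 ADCs (SMCC non-cleavable linker) or DM1-SMe at 500 nM to 5 pM.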

[2] = system: PC3 cells; experiment: In vitro cell viability (cell kill) assay, CCK8; assay type: cell-based, human; conditions: Table 18
Summary of the method: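 Three-day exposure to DM1-conjugated anti-PRLR antibodies or DM1-SMe, 500 nM down to 5 pM, in cells engineered to express human PRLR. Surviving cells are quantified by CCK8 absorbance or by imaged Hoechst nuclear counts, relative to untreated wells.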

[3] = system: HEK293 (293) cells; experiment: In vitro cell viability (cell kill) assay, CCK8; assay type: cell-based, human
Summary of the method: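 Viability of hPRLR-expressing 293, PC3 and MCF7 cells is measured after 3 days with non-cleavable-linker DM1 ADCs (final 500 nM–5 pM). IC50 comes from a four-parameter logistic fit of background-corrected percent-of-untreated values over 10 points.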

[4] = system: TM00107 PDX tumors; experiment: TM00107 patient derived xenograft (PDX) breast cancer model, tumor volume; assay type: in vivo, NOD SCID gamma (NSG) mice
Experimental: Efficacy of H1H6958N2-DM1 was also assessed in a patient derived xenograft (PDX) model of breast cancer that may better represent the response in patients. NOD SCID gamma (NSG) mice bearing tumor fragments of the TM00107 PDX breast cancer tumor were sourced from The Jackson Laboratories. The TM00107 PDX model was derived from an ER+/−/PR−/HER2− metastatic breast adenocarcinoma. PRLR expression was confirmed by microarray analysis and immunohistochemistry on tumor sample slides provided by The Jackson Laboratory (data not shown). When tumors were an average volume of ˜400-600 mm^3 (21 days post implantation), mice were randomized into treatment groups (n=7 mice/group) and were administered H1H6958N2-DM1, control ADC, or vehicle control by intravenous injection once weekly for a total of 4 weeks. A separate treatment group was administered paclitaxel by intravenous injection every 4 days for a total of 4 doses.

[5] = system: PRLR expressing cells; experiment: In vitro cell viability (cell kill) assay, several cell backgrounds; assay type: cell-based, human; conditions: PC3/hPRLR and MCF7/hPRLR cell lines
Text: PRLR-overexpressing cells, including HEK293, PC3, MCF7 and NCI-N87, were generated to assess the ability of anti-PRLR conjugated antibodies to reduce cell viability. For comparative purposes, PC3 and T47D cells with overexpressed ErbB2 were also generated, as well as an MCF7 cell line over-expressing both hPRLR and hErbB2. Briefly, Lipofectamine® 2000-mediated transfection methodology was utilized to generate HEK293 cells expressing human PRLR (HEK293/hPRLR) or human ErbB2 (HEK293/hErbB2). Lipofectamine LTX with Plus Reagent was used to generate PC3 cells expressing human PRLR (PC3/hPRLR) or human ErbB2 (PC3/hErbB2). Lentiviral-mediated transduction was utilized to generate MCF7 cells expressing human PRLR (MCF7/hPRLR), NCI-N87 cells expressing human PRLR (NCI-N87/hPRLR), T47D cells over-expressing human ErbB2 (T47D/hErbB2), and MCF7 cells expressing both human PRLR and human ErbB2 (MCF7/hPRLR/hErbB2). All lines were selected for at least two weeks in complete growth media plus appropriate selection reagents. Stably expressing populations were enriched for PRLR expression via FACS using the anti PRLR antibody Control I.
Next, the ability of anti-PRLR-DM1 antibody-drug conjugates (i.e., anti-PRLR antibodies conjugated to DM1 via a non-cleavable linker [SMCC]) to reduce cell viability was determined using in vitro cell based assays. Cells were seeded in PDL-coated 96 well plates at 1500 to 10000 cells per well in complete growth media and allowed to grow overnight. For cell viability curves, ADCs or free DM1 (as the methyl disulfide derivative DM1-SMe) were added to the cells at final concentrations ranging from 500 nM to 5 pM and incubated for 3 days. The 293, PC3 and T47D cells were incubated with CCK8 (Dojindo, Rockville, Md.) for the final 1-3 hours and the absorbance at 450 nm (OD450) was determined on a Flexstation3 (Molecular Devices, Sunnyvale, Calif.). MCF7 cells were treated with Hoechst 33342 nuclear stain while being fixed with 4% formaldehyde. Images were acquired on the ImageXpress micro XL (Molecular Devices, Sunnyvale, Calif.) and nuclear counts were determined via Columbus image analysis software (Perkin Elmer, Shelton, Conn.). Background OD450 values (PC3, 293, and T47D) or nuclear counts (MCF7) from digitonin (40 nM) treated cells was subtracted from all wells and viability was expressed as a percentage of the untreated controls. IC50 values were determined from a four-parameter logistic equation over a 10-point response curve (GraphPad Prism).

[6] = system: MCF7 tumors; experiment: MCF7 breast tumor xenograft, tumor volume; assay type: in vivo, NCr nude mice
Experimental: After MCF7 or MCF7/PRLR tumors reached an average volume of ˜150-200 mm^3 (14-16 days post implantation), mice were randomized into treatment groups (n=8-9 mice/group) and received a single dose or three once-weekly doses of H1H6958N2-DM1, control ADC, or vehicle control, administered systemically by intravenous tail-vein injection. Tumor size and body weight were measured in vivo twice per week throughout the duration of the study.
The T47Dv11 model was used to assess the activity of H1H6958N2-DM1 in a model with significant levels of endogenous PRLR. As parental T47D cells are poorly tumorigenic, in vivo passaging was employed to develop a variant with consistent tumorigenicity. Initially, 10×10^6 parental T47D cells were implanted subcutaneously (SC) into the left flank of female C.B.-17 SCID mice (Taconic, Hudson N.Y.). Tumors were supplemented with a 90-day release 1.7 mg estrogen pellet (Innovative Research America). Where T47D tumors were observed, they were excised and cut into 3 mm fragments and subsequently implanted into the left flank of separate female C.B.-17 SCID mice. Subsequent passaging was performed until a large tumor was disaggregated into a single cell suspension. The cells (named T47Dv11) from this tumor were then cultured in vitro and expanded. […] For efficacy studies, mice were implanted with 7.5×10^6 T47Dv11 cells into the left flank of female C.B.-17 SCID mice supplemented with a 90-day release 0.72 mg/pellet estrogen pellet. For MCF7 and MCF7/PRLR tumor xenografts, 2×10^7 MCF7/PRLR cells were implanted SC into the left mammary fat pad of female NCr nude mice (7-8 weeks old) supplemented with 90-day release 0.72 mg/pellet estrogen pellets. Tumors were measured with calipers twice a week for the duration of each study. Tumor volume was calculated using the formula TV=(length×width^2)/2.

[7] = system: MCF7 (MCF7/ATCC) cells; experiment: In vitro cell viability (cell kill) assay, nuclear counts; assay type: cell-based, human; conditions: MCF7 cells, approximately 3000 copies of PRLR per cell
Summary of the method: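 Anti-PRLR–DM1 ADCs (non-cleavable SMCC linker) or free DM1-SMe, 500 nM to 5 pM for 3 days on parental or hPRLR-overexpressing lines. HEK293: CCK8 OD450; MCF7: Hoechst nuclear counts by imaging.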

B1: H1H6958N2-DM1: anti-PRLR antibody H1H6958N2 conjugated to the maytansinoid DM1 through an SMCC linker (conjugate)
VH: QVQLVESGGGVVQPGRSLRLSCGASGFTFRNYGMQWVRQGPGKGLEWVTLISFDGNDKYYADSVKGRFTISRDNSKNTLFLQMNSLRTEDTAVYYCARGGDFDYWGQGTLVTVSS
VL: DIQMTQSPSSLSASVGDRVTITCRASQDIRKDLGWYQQKPGKAPKRLIYAASSLHSGVPSRFSGSGSGTEFTLTISSLQPEDFATYYCLQHNSYPMYTFGQGTKLEIK
IC50 [1]: 1.3 nM | % Kill [2]: 81% | IC50 [2]: 110 nM | % Kill ([3]; 293, Table 11, 3 days): 98% | IC50 ([3]; 293, Table 11, 3 days): 75 nM | % Kill ([3]; HEK293, Table 13, + 15 nM PRL): 86% | IC50 ([3]; HEK293, Table 13, + 15 nM PRL): 110 nM | average tumor volume ([4]; 10 mg/kg once weekly, day 30, compared to vehicle): no significant difference in average tumor volume | average tumor volumes ([4]; 20 mg/kg once weekly, day 30, compared to 20 mg/kg control ADC): moderate but significant (p<0.01) decrease | cell killing, non-cleavable DM1 ADCs versus cleavable MMAE ADCs [5]: nearly equivalent cell killing | anti-tumor activity ([6]; repeat treatment (q7dx3), 10 and 15 mg/kg, relative to control ADC): significantly inhibited MCF7 tumor growth | anti-tumor activity ([6]; single dose 15 mg/kg, relative to control ADC): significantly inhibited the growth of the MCF7 tumors | anti-tumor activity ([6]; single dose of 5 or 10 mg/kg): moderate in vivo anti-tumor activity | MCF7 cell killing in vitro [7]: not inhibited
